# Reference: US10350158B2, “2′ fluoro-modified RNAs as immunostimulators” (DUKE UNIVERSITY, priority 2013, dated 2019)
# Strand notation (5' to 3'): a small letter for the sugar, then the base; units joined by * are phosphorothioate-linked, units joined directly phosphodiester-linked; [ ] holds rarer units or linkages, { } end groups; capitals alone tell only the bases. {ppp} = triphosphate; r = 2'-OH (RNA); f = 2'-fluoro
# Assays:
# IFNβ = IFNβ ELISA of transfected melanoma cell supernatants; assay type: cell-based, human
# Protocol: For the intracellular delivery of immune stimulatory RNAs, RNAs were transfected with the DharmaFECT® Duo liposomal transfection reagent (Thermo Scientific, Waltham, Mass.) at a transfection reagent (μl):RNA (μg) ratio of 3.75:1, according to the manufacturer's instructions. Unless otherwise stated, for the induction of innate immune responses and apoptosis, immune stimulatory RNAs (500 ng/ml) were transfected into 50 to 70% confluent cells. Cells were incubated with an RNA-transfection agent complex for 5 h, followed by replenishment with fresh culture medium. To electroporate cells, 1×10^5 cells suspended in 200 μl Opti-MEM I (Invitrogen) were mixed with 1 μg of immune stimulatory RNAs or 5 μg of 2'Fluoro pyrimidine ribonucleoside triphosphate in 2-mm cuvettes and were electroporated at 300 V for 500 μs using an Electro Square Porator ECM 830 (BTX, San Diego, Calif.). For the knockdown of RNA-sensing PRRs, cells were transfected with PRR-specific siRNAs (25 nM) twice at 2-day intervals using DharmaFECT®-1 (Thermo Scientific). At 5 h after the second siRNA transfection, cells were harvested, replated into a 96-well plate and incubated overnight. Cells were then treated with immune stimulatory RNA transfections. Staurosporine (2 μM) (Sigma, St Louis, Mo.) and recombinant human IFNβ (20 ng/ml) (PeproTech, Rocky Hill, N.J.) were used as positive controls of anti-melanoma cytotoxicity. […] (100 ng/ml) (eBioscience, San Diego, Calif.) was added directly to the growth media of cells to neutralize IFNβ. Cells were transfected with RNAs as described above. At 24 hours after RNA transfection, culture supernatants were collected and stored at -80° C. for later analyses. The production of human IL-8 was analyzed with a human IL-8 ELISA kit (eBioscience). IFN-β production was determined with a human IFN-β ELISA kit (PBL Biomedical Laboratories, Piscataway, N.J.) by following the manufacturer's instructions.
# IL-8 = IL-8 ELISA of transfected melanoma cell supernatants; assay type: cell-based, human; conditions: 0.5 μg/ml, 24 h
# Protocol: For the intracellular delivery of immune stimulatory RNAs, RNAs were transfected with the DharmaFECT® Duo liposomal transfection reagent (Thermo Scientific, Waltham, Mass.) at a transfection reagent (μl):RNA (μg) ratio of 3.75:1, according to the manufacturer's instructions. Unless otherwise stated, for the induction of innate immune responses and apoptosis, immune stimulatory RNAs (500 ng/ml) were transfected into 50 to 70% confluent cells. Cells were incubated with an RNA-transfection agent complex for 5 h, followed by replenishment with fresh culture medium. To electroporate cells, 1×10^5 cells suspended in 200 μl Opti-MEM I (Invitrogen) were mixed with 1 μg of immune stimulatory RNAs or 5 μg of 2'Fluoro pyrimidine ribonucleoside triphosphate in 2-mm cuvettes and were electroporated at 300 V for 500 μs using an Electro Square Porator ECM 830 (BTX, San Diego, Calif.). For the knockdown of RNA-sensing PRRs, cells were transfected with PRR-specific siRNAs (25 nM) twice at 2-day intervals using DharmaFECT®-1 (Thermo Scientific). At 5 h after the second siRNA transfection, cells were harvested, replated into a 96-well plate and incubated overnight. […] The production of human IL-8 was analyzed with a human IL-8 ELISA kit (eBioscience). IFN-β production was determined with a human IFN-β ELISA kit (PBL Biomedical Laboratories, Piscataway, N.J.) by following the manufacturer's instructions.
# human TLR3 = target: T1, human TLR3 (Homo sapiens, UniProt O15455); test: HEK-hTLR3-NFκB/SEAP reporter assay; assay type: cell-based; conditions: QUANTI-BLUE
# T1 construct: host or cells: HEK293 (HEK-hTLR3-NFκB/SEAP)
# Protocol: The human TLR3 reporter cell, HEK-hTLR3-NFκB/SEAP was purchased from Invivogen. These cells were stably co-transfected with the human TLR3 gene and an inducible SEAP (secreted embryonic alkaline phosphatase) reporter gene into HEK293 cells. The SEAP gene is placed under the control of NF-κB and AP-1. […] SEAP gene expression was measured using the SEAP detection media QUANTI-BLUE (Invivogen), according to the manufacturer's instructions. FIG. 3B is a graph showing that TLR7 is not stimulated by the ssRNAs. Human TLR7-expressing HEK293 cells were kindly provided by Dr. Todd Brennan (Duke University, Durham, N.C.). Treatment with R848 but not with polyI:C, polyI:C-DF and 5′ppp 2′F 10F-DF complexes stimulated HEK-TLR7 cells to produce the inflammatory cytokine IL-8. The data represent the mean of two experiments. Error bars represent the S.D.
# WM266-4 cells = assay type: cell-based
# Protocol: For the intracellular delivery of immune stimulatory RNAs, RNAs were transfected with the DharmaFECT® Duo liposomal transfection reagent (Thermo Scientific, Waltham, Mass.) at a transfection reagent (μl):RNA (μg) ratio of 3.75:1, according to the manufacturer's instructions. Unless otherwise stated, for the induction of innate immune responses and apoptosis, immune stimulatory RNAs (500 ng/ml) were transfected into 50 to 70% confluent cells. Cells were incubated with an RNA-transfection agent complex for 5 h, followed by replenishment with fresh culture medium. To electroporate cells, 1×10^5 cells suspended in 200 μl Opti-MEM I (Invitrogen) were mixed with 1 μg of immune stimulatory RNAs or 5 μg of 2′Fluoro pyrimidine ribonucleoside triphosphate in 2-mm cuvettes and were electroporated at 300 V for 500 μs using an Electro Square Porator ECM 830 (BTX, San Diego, Calif.). For the knockdown of RNA-sensing PRRs, cells were transfected with PRR-specific siRNAs (25 nM) twice at 2-day intervals using DharmaFECT®-1 (Thermo Scientific). At 5 h after the second siRNA transfection, cells were harvested, replated into a 96-well plate and incubated overnight. Cells were then treated with immune stimulatory RNA transfections. Staurosporine (2 μM) (Sigma, St Louis, Mo.) and recombinant human IFNβ (20 ng/ml) (PeproTech, Rocky Hill, N.J.) were used as positive controls of anti-melanoma cytotoxicity. B18R (100 ng/ml) (eBioscience, San Diego, Calif.) was added directly to the growth media of cells to neutralize IFNβ.
# Growth inhibition relative to untreated cells was quantified at 72 h after RNA transfection using an MTT Cell Proliferation Assay Kit (Cayman Chemicals, Ann Arbor, Mich.), according to the manufacturer's instructions. The percent growth inhibition was calculated by using the following equation: % growth inhibition=([O.D.]untreated−[O.D.]treated)/[O.D.]untreated×100. The induction of cell death was measured 48 h after RNA transfection by flow cytometry after staining with Annexin V-PE and 7-Aminoactinomycin D (7-AAD) using the PE Annexin V Apoptosis Detection Kit I (BD Biosciences, San Jose, Calif.) and analyzed using the CellQuest software (BD Biosciences).
# T1 sequence (O15455 24-904): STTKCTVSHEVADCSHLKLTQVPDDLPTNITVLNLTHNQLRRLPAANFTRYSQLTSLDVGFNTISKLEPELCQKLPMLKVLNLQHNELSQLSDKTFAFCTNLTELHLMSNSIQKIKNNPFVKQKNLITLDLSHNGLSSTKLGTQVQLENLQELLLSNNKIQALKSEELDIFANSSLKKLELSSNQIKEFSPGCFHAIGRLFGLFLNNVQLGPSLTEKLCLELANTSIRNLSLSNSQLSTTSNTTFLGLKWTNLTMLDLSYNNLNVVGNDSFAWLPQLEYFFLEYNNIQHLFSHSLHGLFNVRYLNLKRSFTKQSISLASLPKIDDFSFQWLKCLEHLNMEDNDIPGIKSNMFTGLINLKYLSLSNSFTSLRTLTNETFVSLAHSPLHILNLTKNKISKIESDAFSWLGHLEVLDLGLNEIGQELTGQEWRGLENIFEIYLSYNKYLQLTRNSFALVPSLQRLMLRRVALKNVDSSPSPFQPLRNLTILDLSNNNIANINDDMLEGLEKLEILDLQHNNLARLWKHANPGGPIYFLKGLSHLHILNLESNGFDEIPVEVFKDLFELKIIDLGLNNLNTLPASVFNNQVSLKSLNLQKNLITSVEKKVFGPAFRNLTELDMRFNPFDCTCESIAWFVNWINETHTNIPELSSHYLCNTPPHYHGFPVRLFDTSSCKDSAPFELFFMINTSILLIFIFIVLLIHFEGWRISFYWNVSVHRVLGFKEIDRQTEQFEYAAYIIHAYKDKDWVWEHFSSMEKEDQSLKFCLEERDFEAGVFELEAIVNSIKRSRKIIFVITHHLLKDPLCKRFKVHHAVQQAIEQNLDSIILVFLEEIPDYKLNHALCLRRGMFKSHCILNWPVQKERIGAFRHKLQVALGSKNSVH
molecule,measurement,setting,value
"10F: 5′ppp 2′F pyrimidine ssRNA aptamer, 71 nt, human melanocytic cell-targeting, SEQ ID NO: 4 (nucleic acid) {ppp}-rGrGrGrArGrGrAfCrGrAfUrGfCrGrGfUrAfCfCfUrGrAfCrArGfCrAfUfCfUfUrGrAfUrArAfUrGrGfUfCfCfUrAfCrGrGrArGfCfCrGfUfUfCfCrArGrAfCrGrAfCfUfCrGfCfCfCrGrA","IFNβ production, fold compared to unmodified 5′ppp RNAs","IFNβ; 0.5 μg/ml, 24 h, ELISA",over 2 fold
same,IFNβ production after dephosphorylation of the aptamer,"IFNβ; aptamer treated with bacterial alkaline phosphatase (BAP), 0.125 μg/ml",partially prevented
same,"IFNβ production / induction, in words","IFNβ; liposomal transfection, ELISA",strong induction
same,"IL-8 production, fold compared to unmodified 5′ppp RNAs",IL-8,over 2 fold
same,"IL-8 production, in words",IL-8,strong induction
same,stimulation of TLR3 reporter cells (SEAP),human TLR3,not
same,"cytotoxicity, fold compared to unmodified 5′ppp RNAs","WM266-4 cells; 5′ppp 10F variants, 72 h, MTT",over 2 fold
same,cell death / apoptosis of melanoma cells on co-treatment with B18R,"WM266-4 cells; B18R 100 ng/ml, type I IFN decoy receptor",only partially rescued
same,"growth inhibition / cytotoxicity (anti-melanoma effect), in words","WM266-4 cells; liposomal transfection, 72 h, MTT","comparable to levels observed for the gold standard PRR-activating anti-cancer agent, polyI:C"
